Substitutions are numbered along the chain they refer to.
B1: Ab21 (antibody, V domains shown)
VH: EVQLVESGGGLVQPGGSLRLSCAASGFTFSSFSMDWVRQAPGKGLEWVSYISPDASTIYYADSVKGRFTISRDNAKNSLYLQMNSLRAEDTAVYYCARGVLDYGDMLDPWGQGTLVTVSS
VL: DIQMTQSPSSLSASVGDRVTITCQASQDITNYLNWYQQKPGKAPKLLIYDASNLETGVPSRFSGSGSGTDFTFTISSLQPEDIATYYCQQADNHPPWTFGGGTKVEIK
B2: Ab31 (antibody, IgG4, V domains shown)
VH: B1 VH with S78T, G99A
VL: B1 VL
B3: Ab24 (antibody, IgG4, V domains shown)
VH: B1 VH with G16R, S33A, D35Y
VL: B1 VL
B4: Ab23 (antibody, V domains shown)
VH: B1 VH with D35N, D54S, S56D, S78T
VL: B1 VL
B5: Ab25 (antibody, V domains shown)
VH: B1 VH with S30G
VL: B1 VL
B6: Ab32 (antibody, IgG4, V domains shown)
VH: B1 VH with D35N, D54S, S56D, S78T, L101W, Y103M
VL: B1 VL
B7: Ab28 (antibody, V domains shown)
VH: B1 VH with A97V
VL: B1 VL
B8: Ab26 (antibody, IgG4, V domains shown)
VH: B1 VH with S78T
VL: B1 VL
B9: Ab27 (antibody, V domains shown)
VH: B1 VH with S31F, F32Y, S33A, D35N
VL: B1 VL
B10: Ab30 (antibody, IgG4, V domains shown)
VH: B1 VH with V100T
VL: B1 VL
B11: Ab22 (antibody, IgG4, V domains shown)
VH: B1 VH with S30G, D35N, S52H, P53S
VL: B1 VL
B12: Ab29 (antibody, IgG4, V domains shown)
VH: B1 VH with G16R, S33A, D35N, D62G, A97V, G99A
VL: B1 VL
B13: Ab33 (antibody, IgG4, V domains shown)
VH: B1 VH with D35N, D54S, S56D, S78T, R98H
VL: B1 VL
B14: Ab4 (antibody, IgG4, V domains shown)
VH: B1 VH with F32Y, D35N, P53S, D54S, A55S
VL: B1 VL

molecular target: Matrix-associated proTGFβ1 complexes (hLTBP1-proTGFβ1 and hLTBP3-proTGFβ1); assay: BLI (Octet); conditions: not given

| Molecule | ECM AVRG (average KD, hLTBP1 and hLTBP3 complexes) |
| --- | --- |
| B1 | 0.246 nM |
| B2 | 0.208 nM |
| B3 | 0.222 nM |
| B4 | 0.443 nM |
| B5 | 0.184 nM |
| B6 | 0.242 nM |
| B7 | 0.328 nM |
| B8 | 0.197 nM |
| B9 | 0.208 nM |
| B10 | 0.296 nM |
| B11 | 0.324 nM |
| B12 | 0.155 nM |
| B13 | 0.145 nM |

molecular target: Cell-associated proTGFβ1 complexes (hGARP-proTGFβ1 and hLRRC33-proTGFβ1); assay: BLI (Octet); conditions: not given

| Molecule | Cell AVRG (average KD, hGARP and hLRRC33 complexes) |
| --- | --- |
| B1 | 0.644 nM |
| B2 | 0.495 nM |
| B3 | 0.537 nM |
| B4 | 0.897 nM |
| B5 | 0.449 nM |
| B6 | 0.597 nM |
| B7 | 0.603 nM |
| B8 | 0.492 nM |
| B9 | 0.361 nM |
| B10 | 0.684 nM |
| B11 | 0.695 nM |
| B12 | 0.304 nM |
| B13 | 0.302 nM |

tested on: matrix-associated vs cell-associated proTGFβ1 complexes; assay: MSD-SET: fold bias, cell average over matrix average; format: binding, human; conditions: ratio of average KD
Description: Column (A) of the table lists monoclonal antibodies with discrete amino acid sequences. […] Columns (B), (D), (E) and (F) provide affinities of each of the listed antibodies, measured in KD. […] Average KD values of (B) and (C) are shown in the corresponding column (D), which collectively represents affinities of the antibodies to ECM- or matrix-associated proTGFβ1 complexes. Similarly, Average KD values of (E) and (F) are shown in the corresponding column (G), which collectively represents affinities of the antibodies to cell-surface or cell-associated proTGFβ1 complexes. Finally, relative ratios between the average KD values from columns (D) and (G) are expressed as “fold bias” in column (H). Thus, the greater the number of column (H) is, the greater bias exists for the particular antibody, when comparing binding preferences of the antibody for matrix-associated complexes and cell-surface complexes. This is one way of quantitatively representing and comparing inherent bias of antibodies to their target complexes. Such analyses may be useful in guiding the selection process for a candidate antibody for particular therapeutic use.
Solution equilibrium titration (“SET”) is an assay whereby binding between two molecules (such as an antigen and an antibody that binds the antigen) can be measured at equilibrium in a solution. […]

| Molecule | (H) G/D (fold bias) |
| --- | --- |
| B14 | 0.42 fold |

molecular target: Matrix-associated proTGFβ1 complexes (hLTBP1-proTGFβ1 and hLTBP3-proTGFβ1); assay: MSD-SET, hIgG4; conditions: not given

| Molecule | ECM AVRG (average KD, hLTBP1 and hLTBP3 complexes) |
| --- | --- |
| B2 | 0.017 nM |
| B3 | 0.023 nM |
| B14 | 5.05 nM |
| B6 | 0.032 nM |
| B8 | 0.026 nM |
| B10 | 0.029 nM |
| B11 | 0.042 nM |
| B12 | 0.012 nM |
| B13 | 0.009 nM |

molecular target: Cell-associated proTGFβ1 complexes (hGARP-proTGFβ1 and hLRRC33-proTGFβ1); assay: MSD-SET, hIgG4; conditions: not given

| Molecule | Cell AVRG (average KD, hGARP and hLRRC33 complexes) |
| --- | --- |
| B2 | 0.058 nM |
| B3 | 0.1 nM |
| B14 | 2.3 nM |
| B6 | 0.051 nM |
| B8 | 0.072 nM |
| B10 | 0.081 nM |
| B11 | 0.114 nM |
| B12 | 0.024 nM |
| B13 | 0.027 nM |

Reference: patent publication US20250282857A1, “TGF-BETA INHIBITORS AND USE THEREOF” (SCHOLAR ROCK, INC., priority 2021, published 2025)
